Read-outs that look alike come from different tables or passages of the source.
What was measured:
[1] = unmodified native insulin or proinsulin, background; cited from earlier work
[2] = isoelectric point (measured by isoelectric focusing); type: physicochemical; settings: insulin derivatives of the invention
Experimental: Characteristic of these insulin derivatives is an isoelectric point between 5.8 and 8.5 (measured by isoelectric focusing). The isoelectric point--which is shifted into the neutral range by comparison with the isoelectric point of the unmodified native insulin or proinsulin (at pH = 5.4)--is determined by the additional positive charge(s) located on the surface of the molecule as a result of the basic modification. This makes these insulin derivatives with a basic modification less soluble in the physiological neutral range than is, for example, native insulin or proinsulin, which are normally in dissolved form in the neutral range.
The isoelectric point of the insulin derivatives of the formula II is between 5.5 and 9.0 (measured by isoelectric focusing).

Substance | isoelectric point [1] | isoelectric point [2]
proinsulin: proinsulin, comparison for isoelectric point | 5.4 pH | –
native insulin: unmodified native insulin, comparison for isoelectric point and biological activity | 5.4 pH | –
A0-Arg-de-Thr-B30-human insulin | – | about 6.2

From patent US5506202A, “Insulin derivatives, a process for the preparation thereof, the use thereof, and a pharmaceutical formulation containing them” (Hoechst Aktiengesellschaft, priority 1988, dated 1996)
